Holding throughout (assay): EC50 of free RNA motif oligo competing protein binding to immobilised probe
The target in one data set is LSM3 (UniProt P62310). In outline: (§1)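 To obtain EC50, data were fitted with a four-parameter log-logistic model; Kd was then EC50 multiplied by a protein-dependent depletion factor. Beforehand, free RNA oligos (0 nM to 30 μM) were pre-incubated with HEK293-FT lysate (2.5 mg protein/well) for 1 h at 4°C. The lysate then spent 30 min at 4°C with the same 5′-amino-C6 oligos coupled to NHS-Sepharose beads, and bound proteins were quantified by label-free LC-MS/MS, normalised to the control.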

The next data set addresses T1, WDR33 (UniProt Q9C0J8).
T1 sequence: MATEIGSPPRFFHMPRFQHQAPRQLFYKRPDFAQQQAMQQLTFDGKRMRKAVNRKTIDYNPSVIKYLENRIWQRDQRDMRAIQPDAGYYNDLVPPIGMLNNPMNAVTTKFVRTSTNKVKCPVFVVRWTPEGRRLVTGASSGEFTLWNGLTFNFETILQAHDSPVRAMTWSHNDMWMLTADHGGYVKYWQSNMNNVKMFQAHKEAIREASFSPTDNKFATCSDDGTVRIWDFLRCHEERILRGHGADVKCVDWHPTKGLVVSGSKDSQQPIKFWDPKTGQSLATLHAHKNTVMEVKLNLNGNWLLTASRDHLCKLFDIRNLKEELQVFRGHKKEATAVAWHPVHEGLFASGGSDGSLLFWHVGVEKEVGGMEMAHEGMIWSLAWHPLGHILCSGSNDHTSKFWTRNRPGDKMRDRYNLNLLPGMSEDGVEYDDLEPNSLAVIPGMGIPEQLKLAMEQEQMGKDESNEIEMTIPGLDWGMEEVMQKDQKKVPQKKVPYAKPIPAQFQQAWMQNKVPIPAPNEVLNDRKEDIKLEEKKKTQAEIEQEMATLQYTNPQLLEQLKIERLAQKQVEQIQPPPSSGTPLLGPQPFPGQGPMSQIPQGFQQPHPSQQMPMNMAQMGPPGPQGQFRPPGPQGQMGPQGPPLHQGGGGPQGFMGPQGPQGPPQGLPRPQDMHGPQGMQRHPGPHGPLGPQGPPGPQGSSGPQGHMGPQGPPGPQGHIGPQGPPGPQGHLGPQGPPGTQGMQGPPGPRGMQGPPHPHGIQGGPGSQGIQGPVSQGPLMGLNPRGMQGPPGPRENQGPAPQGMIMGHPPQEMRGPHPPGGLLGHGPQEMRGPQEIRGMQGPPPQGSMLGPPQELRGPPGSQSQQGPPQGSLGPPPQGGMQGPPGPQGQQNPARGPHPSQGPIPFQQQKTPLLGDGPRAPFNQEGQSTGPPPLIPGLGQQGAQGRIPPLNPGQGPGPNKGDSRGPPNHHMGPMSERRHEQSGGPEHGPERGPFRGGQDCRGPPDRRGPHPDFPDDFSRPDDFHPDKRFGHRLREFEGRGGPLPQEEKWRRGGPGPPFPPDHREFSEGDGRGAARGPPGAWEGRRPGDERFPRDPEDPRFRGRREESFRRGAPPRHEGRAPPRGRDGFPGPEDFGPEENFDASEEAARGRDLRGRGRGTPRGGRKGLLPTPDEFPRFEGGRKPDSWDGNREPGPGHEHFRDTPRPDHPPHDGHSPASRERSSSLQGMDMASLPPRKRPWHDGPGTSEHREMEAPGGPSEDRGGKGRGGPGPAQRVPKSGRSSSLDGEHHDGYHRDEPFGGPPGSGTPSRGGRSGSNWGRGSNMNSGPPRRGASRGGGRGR
In outline: as §1

The target in a further data set is T2, RBMS3 (UniProt Q6XE24).
T2 sequence: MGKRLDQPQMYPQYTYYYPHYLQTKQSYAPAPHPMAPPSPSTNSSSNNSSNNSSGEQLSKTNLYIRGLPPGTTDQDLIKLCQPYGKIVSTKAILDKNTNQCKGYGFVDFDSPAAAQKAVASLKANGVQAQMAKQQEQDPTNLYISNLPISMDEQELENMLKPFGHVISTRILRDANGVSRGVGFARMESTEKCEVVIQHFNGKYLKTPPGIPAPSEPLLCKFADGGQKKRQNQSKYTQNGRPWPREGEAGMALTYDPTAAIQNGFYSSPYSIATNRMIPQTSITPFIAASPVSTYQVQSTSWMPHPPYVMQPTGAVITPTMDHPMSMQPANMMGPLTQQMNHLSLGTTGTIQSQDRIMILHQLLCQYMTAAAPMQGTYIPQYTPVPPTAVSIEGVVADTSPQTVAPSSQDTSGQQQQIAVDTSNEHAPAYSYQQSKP
In outline:
as §1

Another data set has as its target T3, HNRNPD (UniProt Q14103).
T3 sequence: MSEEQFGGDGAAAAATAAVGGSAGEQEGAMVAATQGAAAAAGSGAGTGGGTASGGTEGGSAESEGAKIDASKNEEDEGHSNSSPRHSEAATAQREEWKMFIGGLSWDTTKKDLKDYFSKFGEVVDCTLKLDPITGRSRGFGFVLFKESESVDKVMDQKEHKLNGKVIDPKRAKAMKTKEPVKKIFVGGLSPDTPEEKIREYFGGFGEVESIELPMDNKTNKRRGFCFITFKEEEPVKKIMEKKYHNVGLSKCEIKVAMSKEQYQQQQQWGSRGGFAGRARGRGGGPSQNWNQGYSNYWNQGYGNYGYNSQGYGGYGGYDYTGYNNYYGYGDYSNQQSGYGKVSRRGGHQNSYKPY
The procedure, abridged: as §1

Sequence of LSM3 (P62310 whole entry): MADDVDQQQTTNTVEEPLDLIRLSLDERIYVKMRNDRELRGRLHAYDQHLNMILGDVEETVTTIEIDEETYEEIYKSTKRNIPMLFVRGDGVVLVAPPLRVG

Broadly, the EC50 is the concentration that produces a half-maximal response. High values mean a need for much substance, low ones an effect from little substance. In the case of AAUAAA, the EC50 in the data set with LSM3 stood at 358 nM; with WDR33, 64.6 nM; with RBMS3, 1180 nM; in the data set with HNRNPD, 6.52 µM.
As for UAUUUAU, the EC50 with LSM3 worked out at 694 nM; with WDR33, 960 nM; with RBMS3 it was 279 nM; with HNRNPD, 0.653 µM.

(Values after the supplement of paper PMC6379048.)
